Measurements from the supplement of paper PMC10567573.

B1: SCNN1D (parent)
chain: FLGHHSFSVRPGTEATISIREDEV

Variants of: B1
Assay: protein stability index of a GFP-peptide fusion (GPS, HEK-293T) (PSI 1-6); higher = more stable
Conditions: c terminus: a fixed tail appended
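Further: lentivirally expressed fusions sorted by FACS into six bins by GFP to DsRed ratio, PSI derived from sequencing read proportions per bin multiplied by bin number.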

Going from FLGHHSFSVDPGTEATISIREDEV [R10D] to FLGHHSFSVHPGTEATISIREDEV [R10H], the protein stability index falls from 2.77 to 2.3.

Compared with FLGHHSFSVQPGTEATISIREDEV [R10Q], FLGHHSFSVAPGTEATISIREDEV [R10A] is lower in protein stability index: 2.49 for the first, 1.56 for the second.

First: FLGHHSFSVFPGTEATISIREDEV [R10F]
Second: FLGHHSFSVLPGTEATISIREDEV [R10L]
The protein stability index of the first is higher: 1.66 for the first, 1.41 for the second.

First: FLGHHSFSVMPGTEATISIREDEV [R10M]
Second: FLGHHSFSVCPGTEATISIREDEV [R10C]
The protein stability index of the first is lower: 2.03 for the first, 2.52 for the second.

Compared with FLGHHSFSVGPGTEATISIREDEV [R10G], FLGHHSFSVKPGTEATISIREDEV [R10K] is higher in protein stability index: 2.04 for the first, 2.33 for the second.

First: FLGHHSFSVYPGTEATISIREDEV [R10Y]
Second: FLGHHSFSVIPGTEATISIREDEV [R10I]
The protein stability index of the first is lower: 1.63 for the first, 1.9 for the second.

Going from FLGHHSFSVNPGTEATISIREDEV [R10N] to FLGHHSFSVPPGTEATISIREDEV [R10P], the protein stability index rises from 1.53 to 2.11.

First: FLGHHSFSVSPGTEATISIREDEV [R10S]
Second: FLGHHSFSVWPGTEATISIREDEV [R10W]
The protein stability index of the first is higher: 2.35 for the first, 1.63 for the second.

First: FLGHHSFSVTPGTEATISIREDEV [R10T]
Second: FLGHHSFSVVPGTEATISIREDEV [R10V]
The protein stability index of the first is lower: 1.92 for the first, 2.41 for the second.

Compared with FLGHHSFSVEPGTEATISIREDEV [R10E], FLGHHGFSVRPGTEATISIREDEV [S6G] is lower in protein stability index: 2.94 for the first, 1.16 for the second.

Compared with FLGHHHFSVRPGTEATISIREDEV [S6H], FLGHHMFSVRPGTEATISIREDEV [S6M] is higher in protein stability index: 2.08 for the first, 2.96 for the second.

Compared with FLGHHAFSVRPGTEATISIREDEV [S6A], FLGHHQFSVRPGTEATISIREDEV [S6Q] is lower in protein stability index: 3.88 for the first, 1.76 for the second.

Going from FLGHHKFSVRPGTEATISIREDEV [S6K] to FLGHHDFSVRPGTEATISIREDEV [S6D], the protein stability index rises from 1.7 to 2.13.

First: FLGHHWFSVRPGTEATISIREDEV [S6W]
Second: FLGHHFFSVRPGTEATISIREDEV [S6F]
The protein stability index of the first is lower: 1.85 for the first, 2.92 for the second.

First: FLGHHPFSVRPGTEATISIREDEV [S6P]
Second: FLGHHRFSVRPGTEATISIREDEV [S6R]
The protein stability index of the first is lower: 1.46 for the first, 2.19 for the second.

Compared with FLGHHCFSVRPGTEATISIREDEV [S6C], FLGHHYFSVRPGTEATISIREDEV [S6Y] is higher in protein stability index: 2.25 for the first, 2.88 for the second.

Going from FLGHHEFSVRPGTEATISIREDEV [S6E] to FLGHHVFSVRPGTEATISIREDEV [S6V], the protein stability index falls from 2.73 to 1.88.

Compared with FLGHHNFSVRPGTEATISIREDEV [S6N], FLGHHTFSVRPGTEATISIREDEV [S6T] is lower in protein stability index: 2.08 for the first, 2.02 for the second.

Compared with FLGHHSFSVRPGGEATISIREDEV [T13G], FLGHHSFSVRPGVEATISIREDEV [T13V] is higher in protein stability index: 1.25 for the first, 1.49 for the second.

Going from FLGHHSFSVRPGSEATISIREDEV [T13S] to FLGHHSFSVRPGCEATISIREDEV [T13C], the protein stability index rises from 1.18 to 1.58.

Going from FLGHHSFSVRPGMEATISIREDEV [T13M] to FLGHHSFSVRPGDEATISIREDEV [T13D], the protein stability index falls from 1.73 to 1.63.

Going from FLGHHSFSVRPGNEATISIREDEV [T13N] to FLGHHSFSVRPGLEATISIREDEV [T13L], the protein stability index rises from 1.49 to 2.71.

First: FLGHHSFSVRPGEEATISIREDEV [T13E]
Second: FLGHHSFSVRPGAEATISIREDEV [T13A]
The protein stability index of the first is higher: 2.09 for the first, 1.77 for the second.

First: FLGHHSFSVRPGHEATISIREDEV [T13H]
Second: FLGHHSFSVRPGYEATISIREDEV [T13Y]
The protein stability index of the first is higher: 2.03 for the first, 1.36 for the second.

Compared with FLGHHSFSVRPGPEATISIREDEV [T13P], FLGHHSFSVRPGQEATISIREDEV [T13Q] is higher in protein stability index: 1.88 for the first, 1.97 for the second.

Compared with FLGHHSFSVRPGKEATISIREDEV [T13K], FLGHHSFSVRPGFEATISIREDEV [T13F] is lower in protein stability index: 2.37 for the first, 1.91 for the second.

First: FLGHHSFSVRPGIEATISIREDEV [T13I]
Second: FLGHHSFSVRPGREATISIREDEV [T13R]
The protein stability index of the first is lower: 1.44 for the first, 1.7 for the second.

Compared with FLGHHSDSVRPGTEATISIREDEV [F7D], FLGHHSGSVRPGTEATISIREDEV [F7G] is higher in protein stability index: 4.41 for the first, 4.43 for the second.

FLGHHSESVRPGTEATISIREDEV [F7E] and FLGHHSTSVRPGTEATISIREDEV [F7T] are the same in protein stability index: 4.81 for the first, 4.81 for the second.

First: FLGHHSRSVRPGTEATISIREDEV [F7R]
Second: FLGHHSVSVRPGTEATISIREDEV [F7V]
The protein stability index of the first is higher: 3.94 for the first, 3.88 for the second.

First: FLGHHSLSVRPGTEATISIREDEV [F7L]
Second: FLGHHSPSVRPGTEATISIREDEV [F7P]
The protein stability index of the first is lower: 4.01 for the first, 4.44 for the second.

First: FLGHHSISVRPGTEATISIREDEV [F7I]
Second: FLGHHSNSVRPGTEATISIREDEV [F7N]
The protein stability index of the first is lower: 3.65 for the first, 4.38 for the second.

Going from FLGHHSMSVRPGTEATISIREDEV [F7M] to FLGHHSHSVRPGTEATISIREDEV [F7H], the protein stability index falls from 4.18 to 4.17.

Going from FLGHHSYSVRPGTEATISIREDEV [F7Y] to FLGHHSWSVRPGTEATISIREDEV [F7W], the protein stability index rises from 2.38 to 3.24.

First: FLGHHSKSVRPGTEATISIREDEV [F7K]
Second: FLGHHSCSVRPGTEATISIREDEV [F7C]
The protein stability index of the first is higher: 4.54 for the first, 3.6 for the second.

Compared with FLGHHSQSVRPGTEATISIREDEV [F7Q], FLGHHSASVRPGTEATISIREDEV [F7A] is higher in protein stability index: 3.98 for the first, 4.31 for the second.

Going from FLGHHSSSVRPGTEATISIREDEV [F7S] to FLGHHSFSVRHGTEATISIREDEV [P11H], the protein stability index falls from 4.1 to 1.7.

Going from FLGHHSFSVRYGTEATISIREDEV [P11Y] to FLGHHSFSVRIGTEATISIREDEV [P11I], the protein stability index rises from 1.99 to 2.14.

First: FLGHHSFSVRQGTEATISIREDEV [P11Q]
Second: FLGHHSFSVRLGTEATISIREDEV [P11L]
The protein stability index of the first is higher: 1.99 for the first, 1.82 for the second.

Compared with FLGHHSFSVRSGTEATISIREDEV [P11S], FLGHHSFSVRDGTEATISIREDEV [P11D] is higher in protein stability index: 1.72 for the first, 1.88 for the second.

First: FLGHHSFSVRAGTEATISIREDEV [P11A]
Second: FLGHHSFSVRWGTEATISIREDEV [P11W]
The protein stability index of the first is lower: 1.53 for the first, 1.97 for the second.

Going from FLGHHSFSVRMGTEATISIREDEV [P11M] to FLGHHSFSVRKGTEATISIREDEV [P11K], the protein stability index rises from 1.25 to 1.93.

Going from FLGHHSFSVRTGTEATISIREDEV [P11T] to FLGHHSFSVRVGTEATISIREDEV [P11V], the protein stability index falls from 1.59 to 1.53.

First: FLGHHSFSVREGTEATISIREDEV [P11E]
Second: FLGHHSFSVRRGTEATISIREDEV [P11R]
The protein stability index of the first is higher: 2.14 for the first, 2.02 for the second.

Compared with FLGHHSFSVRGGTEATISIREDEV [P11G], FLGHHSFSVRNGTEATISIREDEV [P11N] is higher in protein stability index: 1.64 for the first, 1.98 for the second.

Going from FLGHHSFSVRFGTEATISIREDEV [P11F] to FLGHHSFSFRPGTEATISIREDEV [V9F], the protein stability index rises from 1.47 to 2.33.

Compared with FLGHHSFSCRPGTEATISIREDEV [V9C], FLGHHSFSDRPGTEATISIREDEV [V9D] is higher in protein stability index: 2.08 for the first, 3.54 for the second.
